Laboratory results taken from patent publication US5064430A, “Polynonapeptide bioelastomers having an increased elastic modulus” (UAB Research Foundation, priority 1989, dated 1991).
Like-named read-outs stand apart in the source and are kept apart here. Ends that are not written are not given here.

What was measured:
[1] = Temperature profiles of turbidity formation / coacervation (light scattering at 300 nm); format: physicochemical; details: for onset of aggregation (coacervation): high molecular weight polymer in water; for midpoint of the temperature profile of turbidity formation / coacervation: 40 mg/ml (high concentration limit)
Description: FIG. 3 illustrates temperature profiles of turbidity (TP.tau.) data for poly(VPGFGVGAG) at 40 mg/ml and 1 mg/ml concentrations in H2 O. The aggregational process was monitored by measuring light scattering at 300 nm as a function of temperature using a Cary 14 recording spectrophotometer.
The temperature dependence for aggregation of the polypentapeptide is followed as the development of turbidity at 300 nm using a Cary 14 spectrophotometer. The sample cell is placed within a chamber vibrating at 300 Hz in order to facilitate equilibrium and to keep the aggregates from settling. The scan rate is 30° C./hour and the temperature was controlled with a Neslab ETP-3 programmer and monitored with an Omega 199A thermocouple monitor placed at the cell. The turbidity as a function of temperature provides a temperature profile for coacervation which is found to be concentration dependent. As the concentration is raised, the profile shifts to lower temperatures until further increases in concentration cause no further lowering of the temperature for aggregation. This defines the high concentration limit. The temperature for the onset of coacervation at the high concentration limit coincides with the temperature for the onset of the transition within the coacervate itself, even when there is no appreciable change in water content of the coacervate. […] When the midpoint is 25° C. for the PPP, the molecular weight is close to 100,000 daltons as calibrated by dialysis. For the Ile^1 -PPP with a midpoint of 9° C., the molecular weight is greater than 50,000 daltons, as the synthetic polypeptide was retained by a 50,000 daltons dialysis membrane. The dialysis was carried out at 4° C. where the Ilel-PPP is in solution.
Polypeptide coacervation in water is reversible aggregation to form a new phase with a distinct composition. Association occurs on raising the temperature, disassociation on lowering the temperature. The process of coacervation was followed by monitoring the turbidity as a function of temperature using a Cary 14 spectrophotometer set at 300 nm, a Neslab ETP-3 temperature programmer with a 30° C./hour scan rate and an Omega 199A thermocouple monitor. The sample cell was placed in a vibrating chamber (300 Hz) to keep the aggregates from settling and to facilitate equilibrium. The temperature profiles for coacervation are concentration dependent. Dilution from a high concentration, after the high concentration limit is reached (approximately 40 mg/ml for high molecular weight elastomeric polypeptides), results in a shift of the turbidity profile to higher temperature.

[2] = Solubility in water as a function of temperature; format: physicochemical
[3] = Thermoelasticity studies (elastomeric force as a function of temperature); format: physicochemical; details: γ-irradiation cross-linked (20 Mrad), fixed extension (40%), in water
Description: Thermoelasticity studies were carried out on a stress-stain instrument built in this Laboratory. The sample is mounted in two Delrin clamps. The top clamp is attached to a Statham UTC strain-gauge and the assembly is fixed. The bottom clamp is attached to a moving platform driven by a variable speed motor. Both clamps are enclosed in a thermostated water jacket. An inner chamber contains the solvent in which the elastomer is immersed which in this case is doubly distilled water. The sample was fixed in the top clamp and equilibrated in water at 60° C. for about an hour. The strain-gauge signal conditioner was balanced for zero force and the bottom clamp was attached to the sample. The sample was left to set overnight at room temperature. The bottom clamp was then adjusted for zero force and the distance between the clamps was measured. The elastomer was elongated to 40% extension at 5° C. and elastomeric force was then determined as a function of temperature. Equilibrium time to achieve constant force at a given temperature was typically twenty-four hours. Force measurements were made in 2° C. increments through the sharp rise in force and 5° C. increments at higher temperatures.
Thermoelasticity studies were carried out on a stress-strain apparatus. Clamping of the sample in the holder was done in two stages to prevent damage to the material at the clamp edge. The sample was first gripped lightly with the top clamp, raised to 60° C. while submerged in water within the temperature jacket and allowed to equilibrate for about 2 hours. The measured force consisting of the weight of the sample and grips in water were set to zero. The bottom grip was then attached to the sample and both grips tightened to hold the sample firmly. The bottom clamp was driven as in a stress-strain measurement and stopped at 40% elongation. Force data were recorded in 5° C. steps starting at 70° C. and continuing to 40° C. where the force approached zero.

[4] = Stress/strain studies of γ-irradiation cross-linked matrices (elastic modulus); format: physicochemical; details: 25 Mrad cross-linking dose
fibroblasts = test: Checkerboard assay of Zigmond and Hirsch (chemotaxis) with fibroblasts; format: cell-based
Excerpt: The chemotaxis of the present polynonapeptide towards fibroblasts and endothelial cells can be determined and verified by the well known checkerboard assay of Zigmond and Hirsch. […] Checkerboard analysis of AGVPGFGVG and GFGVGAGVP sequences with fibroblasts using the procedure as described above afforded the following results which are represented graphically in Tables I and II.

[5] = high molecular weight, cross-linked by γ-irradiation (background); cited from earlier work

Substance | onset of aggregation (coacervation) [1] | midpoint of the temperature profile of turbidity formation / coacervation ([1]; in water) | temperature below which soluble in water [2] | temperature of essentially full elastic contraction / maximal elastomeric force [3] | midpoint of the temperature profile of turbidity formation ([1]; in water, 1 mg/ml) | elastic modulus [4] | Checkerboard analysis with fibroblasts, positive control (fibroblasts; PDGF at 30 μg/ml (Table II experiment)) | Checkerboard analysis with fibroblasts, positive control (fibroblasts; PDGF at 60 μg/ml (Table I experiment)) | elastic modulus [5]
H-(Gly-Val-Gly-Ile-Pro)n -OH (H-GVGIP-OH; also: polymer, (GVGIP) repeated n times) [Ile^1 -PPP] | ~8 °C | 9 °C | below 8 °C | about 25 °C |  |  |  |  | 
Poly[Ala-Gly-Val-Pro-Gly-Phe-Gly-Val-Gly]-OH [poly(VPGFGVGAG)] |  | about 8 °C | below 5 °C |  | about 11 °C | 10^8 dynes/cm^2 |  |  | 
PDGF |  |  |  |  |  |  | 59 | 21 | 
H-(Gly-Gly-Val-Pro)n -OH (H-GGVP-OH; also: repeated n times (polymer)) [PTP] | 48 °C | 49 °C | below 40 °C | ~70 °C |  |  |  |  | 
(Val-Pro-Gly-Val-Gly)n (VPGVG; also: polymer of repeating pentamer, (VPGVG)n) [PPP, reference compound] | 24 °C | 25 °C |  | 40 °C |  |  |  |  | ~10^6 dynes/cm^2
